The values below come from publication PMC5988349.

Experiment [1] concerns the target dynactin (purified from pig brains) (pig (endogenous in pig brain)) (UniProt F2Z5G5). Put plainly: cryo-EM structure.
For experiment [2], the target named is dynein tail (HC^1-1455) complex (human) (UniProt Q14204). Nature of the experiment: negative-stain EM with 3D classification.
Experiment [3] concerns the target dynactin (purified from pig brains) (pig (endogenous in pig brain)) (UniProt F2Z5G5). Put plainly: negative-stain EM with 3D classification.
The target in experiment [4] is wild-type human cytoplasmic dynein-1, SNAPf-tagged, labelled with TMR or Alexa647 (human) (UniProt Q14204).

“dynein tail (HC^1-1455) complex (from UniProt Q14204;O43237;P63172;P63167;Q9NP97)” came in with a stoichiometry N in experiment [1] of 2. In experiment [2], this substance returned a percent of adaptor complexes with two dyneins (with m2 and m4) of 88%; a percent of adaptor complexes with two dyneins (with m2 and m5) of 17%; a percent of adaptor complexes with two dyneins (with m2 and m6) of 94%. For the same substance, the percent of adaptor complexes with one dynein (with m5) in experiment [3] came to 69%.
For “wild-type human cytoplasmic dynein-1, SNAPf-tagged, labelled with TMR or Alexa647 (from UniProt Q14204;O43237;P63172;P63167;Q9NP97) (complex)”, the velocity of BICD2 complexes containing both fluorophores, and hence two dyneins in experiment [4] is 1.08 μm/s.

For orientation: stoichiometry N means the number of molecules, sites or subunits per partner or assembly.
